In assay [1] the target is full length pHrodo-labelled aggregated (P301S) 2N4R tau (human) (UniProt P10636). The experiment in a line: cell-based or functional assay.
Assay [2] has as its target full length pHrodo-labelled monomeric (P301S) 2N4R tau (human) (UniProt P10636). Put plainly: cell-based or functional assay.

full length pHrodo-labelled aggregated (P301S) 2N4R tau (human), sequence (P10636 other isoform, or with tags, fused parts or gaps P301S P301S): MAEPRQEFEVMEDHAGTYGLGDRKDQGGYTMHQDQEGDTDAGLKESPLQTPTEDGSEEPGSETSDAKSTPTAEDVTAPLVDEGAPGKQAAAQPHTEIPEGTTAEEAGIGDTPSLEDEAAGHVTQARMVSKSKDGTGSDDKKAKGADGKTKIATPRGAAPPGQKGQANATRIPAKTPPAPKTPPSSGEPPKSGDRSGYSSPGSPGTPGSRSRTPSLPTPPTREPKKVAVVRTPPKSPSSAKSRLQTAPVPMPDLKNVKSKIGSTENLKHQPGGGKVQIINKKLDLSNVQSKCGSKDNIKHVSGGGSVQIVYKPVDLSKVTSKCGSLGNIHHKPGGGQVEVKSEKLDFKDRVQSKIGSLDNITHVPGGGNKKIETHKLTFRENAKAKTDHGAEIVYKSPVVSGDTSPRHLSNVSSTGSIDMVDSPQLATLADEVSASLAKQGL
full length pHrodo-labelled monomeric (P301S) 2N4R tau (human), sequence (P10636 other isoform, or with tags, fused parts or gaps P301S P301S): as above

B1: Clone 1 rabbit monoclonal IgG (antibody, V domains shown)
VH: QSLEESGGGLVKPGGTLTLTCTVSGFSLNNYDMSWVRQAPGKGLEWIGTVSTTYRRYYASWAKGRFTISKTSSTTVDLKMTSLTTEDTATYFCAASGIWGPGTLVTVSL
VL: AQVLTQTTSPVSAAVGGTVTINCQSSQRVYSNYLAWYQQKPGQPPKRLIFLASTLESGVPSRFSGSGSGTQFTLTISDLECDDAATYYCAGTYTGSIWAFGGGTEVVVKG
In assay [1], B1 returned an inhibition of uptake of aggregated tau by human iPSC-derived astrocytes of 46.3 % inhibition, an inhibition of uptake of aggregated tau into human iPSC-derived neurons of 65 % inhibition and an inhibition of uptake of pHrodo-labelled aggregated tau into human iPSC-derived neurons at 4 h of 69 % inhibition. In assay [2], this molecule gave an inhibition of uptake of monomeric tau by human iPSC-derived astrocytes of 39.8 % inhibition and an inhibition of uptake of monomeric tau into human iPSC-derived neurons of 41.2 % inhibition.

The values are drawn from patent US20220265819A1.
